Measured values as given in the supplement of paper PMC10567573.
± gives the standard deviation.

Assay: protein stability index of a GFP-peptide fusion (GPS, HEK-293T) (PSI 1-6); higher = more stable
[1] = treatment: DMSO, c terminus: a fixed tail appended
[2] = treatment: MLN4924 1 uM, 8 h, c terminus: a fixed tail appended
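Further: 24-mer peptide tiles fused after GFP, lentivirally expressed, FACS-sorted into six equal bins by GFP/DsRed ratio, decoded by Illumina sequencing, PSI is the read-weighted mean bin number.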

| Sequence | protein stability index [1] | protein stability index [2] | protein stability index (treatment: DMSO, c terminus: native) | protein stability index (treatment: MLN4924 1 uM, 8 h, c terminus: native) |
| --- | --- | --- | --- | --- |
| GDRMFYRDWWNSTSFSNYYRTWNV [SOAT2] | 2.19 ± 0.16 | 2.28 ± 0.39 |  |  |
| GECRQMSSSSQIGNDSFQLQVTED [CLCN6] | 5.06 ± 0.22 | 5.09 ± 0.25 |  |  |
| GEDIPEKIKDEVHPEVKCVGSVAL [C8orf76] | 4.84 ± 0.39 | 4.81 ± 0.31 |  |  |
| GEDTRLSASEMKQLIDNILEESDI [CIB1] | 5.27 ± 0.27 | 5.26 ± 0.25 |  |  |
| GEKPHRCPQCGKCFARKSQLTGHQ [ZNF449] | 4.66 ± 0.23 | 4.85 ± 0.31 |  |  |
| GELRLGKNLYTNEYVAIKLEPMKS [CSNK1G3] | 2.32 ± 0.29 | 2.27 ± 0.7 |  |  |
| GEYPRWDAWSGSNAYHIERLMSFR [CRYBA1] | 2.17 ± 0.22 | 2.41 ± 0.28 |  |  |
| GFAFITFENPADAKNAAKDMNGKS [RBMY1A1] | 3.55 ± 0.46 | 3.68 ± 0.36 |  |  |
| GFEFSVPFTEMKLRPRNFRSPAGG [TNXB] |  | 3.66 ± 0.66 |  |  |
| GGEMSPQVETSIEGTIPFSKPVKV [INTS4] | 4.77 ± 0.2 | 4.76 ± 0.17 |  |  |
| GGFAKCYEMTDLTNNKVYAAKIIP [PLK2] | 2.52 ± 0.38 | 2.81 ± 0.29 |  |  |
| GGGSLSGGGGSRSISASSARFVSS [KRT15] | 4.23 ± 0.47 | 4.39 ± 0.23 |  |  |
| GGKIIMPPSALDQLSRLNITYPML [UFD1] | 2.16 ± 0.089 | 2.28 ± 0.2 |  |  |
| GIPKGVMLSHDNITWIAGAVTKDF [ACSBG2] | 2.67 ± 0.15 | 2.74 ± 0.15 |  |  |
| GKLSWGTMARALGRFKLSIPHTHL [WDR88] | 2.31 ± 0.28 | 2.13 ± 0.11 |  |  |
| GKRRKDEISVDSLDFSKKILHTAW [PPP2R2B] | 2.34 ± 0.2 | 2.52 ± 0.049 |  |  |
| GKVQDIKAREKDGKGRTASPINSP [FSD1] | 4.99 ± 0.37 | 5.25 ± 0.24 |  |  |
| GLGNTWPGASGSAQSLDRLGIMGA [ATP23] | 3.3 ± 0.24 | 3.48 ± 0.3 |  |  |
| GLPPSGSWQDLKDHMREAGDVCYA [SRSF1] | 3.65 ± 0.25 | 3.83 ± 0.48 |  |  |
| GMLCSFRIPGAWSCAWSLNIQANN [DCAF4] | 2.69 ± 0.8 | 2 ± 0.29 |  |  |
| GMVRAHGVRVSVPCPSTTCCRACS [BET1L] | 3.04 ± 0.29 | 3.4 ± 0.51 |  |  |
| GNFESLDLAEFAKKQPWWRKLFGQ [FUNDC2] | 3.31 ± 0.24 | 3.29 ± 0.35 |  |  |

| Sequence | protein stability index [1] | protein stability index [2] | protein stability index (treatment: DMSO, c terminus: native) | protein stability index (treatment: MLN4924 1 uM, 8 h, c terminus: native) |
| --- | --- | --- | --- | --- |
| GNGALSNISDLPFLAENSAFPKMA [LCOR] | 3.72 ± 0.22 | 3.49 ± 0.17 |  |  |
| GPAPPPLPPALVPAGGLAPGGGRG [WAS] | 5.09 ± 0.13 | 5.09 ± 0.18 |  |  |
| GPDTQDLEGQSPPQSLPSTPKAAW [PBXIP1] | 5.2 ± 0.28 | 5.07 ± 0.18 |  |  |
| GPFDQGSPFAQELLDDGQQASPYH [ELF3] | 5.16 ± 0.18 | 4.96 ± 0.13 |  |  |
| GPLLGTNGATDDSKTNLIVNYLPQ [ELAVL3] | 3.84 ± 0.3 | 3.92 ± 0.24 |  |  |
| GRGPPSEPVLTQTSEQAPSSAPRD [PTPRD] | 5.74 ± 0.22 | 5.34 ± 0.31 |  |  |
| GRKDITSILRAPAYPLELQGQPDP [MOSPD3] | 4.26 ± 0.15 | 4.28 ± 0.35 |  |  |
| GRQERGLPPSMERGYPPPRDSYSS [RBMX] | 4.77 ± 0.088 | 4.71 ± 0.19 |  |  |
| GRRAALYVHWPYCEKRCSYCNFNK [RSAD1] | 2.23 ± 0.45 | 2.96 ± 0.55 |  |  |
| GRVLRKLPFLAHALYVQAPTVTIE [TRIP13] | 2.32 ± 0.54 | 2.05 ± 0.45 |  |  |
| GSFHGPGHISLRRENSSDSPKELK [DLC1] | 4.99 ± 0.39 | 5.09 ± 0.41 |  |  |
| GSGTIDFEEFLVMMVRQMKEDAKG [TNNC2] | 3.25 ± 0.88 | 3.88 ± 0.8 |  |  |
| GSMVEIAKQLQAVKRKIRDESLCP [TRIM39] | 3.09 ± 0.24 | 3.15 ± 0.24 |  |  |
| GSSDASGSYSSTMNGHQNGLDSPP [ESRRG] | 4.93 ± 0.13 | 4.99 ± 0.27 |  |  |
| GTPSLLRGKRGGHATNYRIVAPRS [EMID1] | 4.1 ± 0.12 | 3.88 ± 0.32 |  |  |
| GVHVRRTDKVGTEAAFHPIEEYMV [FUT8] | 3.36 ± 0.29 | 3.58 ± 0.27 |  |  |
| GVPGQPLNFKAEPESETSILLSWT [PTPRD] | 2.83 ± 0.27 | 2.98 ± 0.49 |  |  |
| GWKSMIQSHPHLVAEAFRALASAQ [SPOPL] | 2.4 ± 0.44 | 2.3 ± 0.17 |  |  |
| HCIQQILESVNHCHLNGIVHRDLK [CAMK2D] | 2.26 ± 0.047 | 2.36 ± 0.5 |  |  |
| HDKIRPISSIGQVQSYMEHYCNSS [SPACA9] | 3.6 ± 0.4 | 3.72 ± 0.18 |  |  |
| HEKIGFPAARRCHSCVQIKNDVFI [KLHDC10] | 1.89 ± 0.31 | 1.73 ± 0.27 |  |  |
| HFAAASTHGALCLELLVNNGADVN [ANKRD44] | 2.73 ± 0.23 | 2.62 ± 0.38 |  |  |

| Sequence | protein stability index [1] | protein stability index [2] | protein stability index (treatment: DMSO, c terminus: native) | protein stability index (treatment: MLN4924 1 uM, 8 h, c terminus: native) |
| --- | --- | --- | --- | --- |
| HFLSKMPEAEENKQIIRKHAQTFV [CCND1] | 3.39 ± 0.21 | 3.43 ± 0.29 |  |  |
| HGISIPEPEDMETLEEKFSDVHPV [CDKL4] | 5.29 ± 0.2 | 4.98 ± 0.28 |  |  |
| HHSLQAHFRPRFHPLPTVIIVNLL [TMEM192] | 2.68 ± 0.28 | 2.35 ± 0.48 |  |  |
| HITKTVKGGISETRIEKRIVITGD [EPB41L3] | 3.85 ± 0.28 | 3.96 ± 0.12 |  |  |
| HIWELSSIKNSLKVAAISESPVAE [PTGFR] | 3.11 ± 0.28 | 3.21 ± 0.39 |  |  |
| HKADSIQGTARTLSPVLESPRDLQ [TNXB] | 4.75 ± 0.18 | 4.9 ± 0.14 |  |  |
| HLRNKTEDLEATSEHFKTTSQKVA [VAMP8] | 5.01 ± 0.24 | 5.07 ± 0.14 |  |  |
| HLVAGGGAGAVSRTCTAPLDRLKV [SLC25A25] | 3.11 ± 0.35 | 3.25 ± 0.22 |  |  |
| HMEEEVEDFLLKKPIVPTDGKRVI [CDC25A] | 4.68 ± 0.096 | 4.84 ± 0.24 |  |  |
| HPPPSTPIKLEEGDGCAREYLLP [ADD1] |  |  | 5.13 ± 0.2 | 4.81 ± 0.09 |
| HQRTHTGEKPFTCHECGKKFSQNS [ZNF75A] | 3.14 ± 0.27 | 3.47 ± 0.33 |  |  |
| HRLGSPYGHCTAGGEGVEVELLHN [SCNN1D] | 3.9 ± 0.34 | 3.82 ± 0.37 |  |  |
| HRNQCQYCRLKKCLKVGMRREAVQ [NR2F2] | 2.39 ± 0.47 | 2.57 ± 0.57 |  |  |
| HRRRNQLIKKKKEELEAKRLQCPF [FAM107A] | 3.95 ± 0.38 | 4.22 ± 0.16 |  |  |
| HRRTVKMRKGNTMQQFLQKALEIL [FAM50A] | 3.08 ± 0.36 | 2.77 ± 0.42 |  |  |
| HRYIAYMANQEAAIQAFLDKCSAP [IQUB] | 2.51 ± 0.2 | 2.38 ± 0.46 |  |  |
| HSSWTPPNAQYWSQFHSVRPQGPQ [DNAJC4] | 3.23 ± 0.053 | 3.34 ± 0.22 |  |  |
| HTLRASMRELGLLIFFLFIGVILF [KCNA4] | 2.86 ± 0.53 | 2.61 ± 0.49 |  |  |
| HTPTPFKNALEKYGPLKPLPQTPH [MYBL2] | 3.56 ± 0.28 | 3.91 ± 0.35 |  |  |
| HVKMMLSGVCLFAVFIALLPILGH [PTGFR] | 2.97 ± 0.83 | 2.79 ± 0.78 |  |  |
| HVTCVDQSEHTMVLRCQLSAEEVR [C2CD2L] | 3.73 ± 0.19 | 3.82 ± 0.18 |  |  |
